We go through 15 molecules from US20260193326A1 (published 2026).

Usually Kd stands for the concentration at which binding is half-saturated. Read a low Kd as tighter binding. The koff is the rate constant with which the complex falls apart. Read a high koff as fast dissociation. One may read the kon as a measure of how fast the partners come together. High values mean faster complex formation, low ones slower complex formation.

Changes are numbered by the printed parent chain.

The target in assay [1] is T1, AAV9 (adeno-associated virus serotype 9).
T1 construct: also called adeno-associated virus serotype 9
Kind of assay: SPR, AAV on CM5 chip. (Surface plasmon resonance follows binding to a sensor surface in real time, without labels.)
Description: (§1) AAV was amine-coupled to a CM5 sensor chip at a density of 500-800 response units (RU). Nanobodies were injected at seven concentrations (1-100 nM) with a flow rate of 45 μL/min, and chip regeneration was performed using glycine-HCl (pH 1.5). Binding curves at different nanobody concentrations were used to calculate kinetic parameters (Kₐ, Kd, KD) (Table 2 and FIG. 2).

Assay [2] concerns the target T2, AAV8 (adeno-associated virus serotype 8).
T2 construct: also called adeno-associated virus serotype 8
Kind of assay: SPR, AAV on CM5 chip.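 Also: surface plasmon resonance with AAV amine-coupled to the chip as ligand, nanobodies injected as analyte over a concentration series, rate constants and affinity fitted from binding curves.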
Description: as §1

The target in assay [3] is T3, AAV5 (adeno-associated virus serotype 5).
T3 construct: also called adeno-associated virus serotype 5
Description: SPR, AAV on CM5 chip.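 Also: surface plasmon resonance with AAV amine-coupled to the chip as ligand, nanobodies injected as analyte over a concentration series, rate constants and affinity fitted from binding curves.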
Description: as §1

Assay [4] has as its target T4, AAV5 (adeno-associated virus 5).
T4 construct: also called adeno-associated virus serotype 5
Description: SPR, AAV amine-coupled to CM5 chip.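 Also: nanobodies flowed as analyte at seven concentrations spanning 1–100 nM over immobilized AAV (500–800 RU), kinetic constants derived by fitting the binding curves.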
Description: as §1

Assay [5] addresses T5, AAV2 (adeno-associated virus 2, UniProt P03135 1-735).
T5 construct: also called adeno-associated virus serotype 2
Description: SPR, AAV amine-coupled to CM5 chip.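 Also: nanobodies flowed as analyte at seven concentrations spanning 1–100 nM over immobilized AAV (500–800 RU), kinetic constants derived by fitting the binding curves.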
Description: as §1

Assay [6] addresses T6, AAV9 (adeno-associated virus 9).
T6 construct: also called adeno-associated virus serotype 9
Kind of assay: SPR, AAV amine-coupled to CM5 chip.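 Also: nanobodies flowed as analyte at seven concentrations spanning 1–100 nM over immobilized AAV (500–800 RU), kinetic constants derived by fitting the binding curves.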
Description: as §1

Assay [7] concerns the target T7, AAV8 (adeno-associated virus 8).
T7 construct: also called adeno-associated virus serotype 8
Description: SPR, AAV amine-coupled to CM5 chip.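 Also: nanobodies flowed as analyte at seven concentrations spanning 1–100 nM over immobilized AAV (500–800 RU), kinetic constants derived by fitting the binding curves.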
Description: as §1

B1: A4-108 (VHH)
VHH: VQLQESGGGLAQPGGSLRLSCLASGSGFSINTMGWYRQAPPKWRELVATVTRGGSTNYAGSVKGRFTISRDNPKNTVYLQMNSLRPEDTAVYYCHLDEVRQSTWTTSNIWGQGTQVTVSS
Take B1: in assay [1], the Kd came to 3.54 nM, the koff was 0.00061 s⁻¹ and the kon is 172000 M⁻¹ s⁻¹. In assay [2], this molecule had a Kd of 7.94 nM, a koff of 0.00085 s⁻¹ and a kon of 107000 M⁻¹ s⁻¹. In assay [3], this molecule had a Kd of 7.12 nM, an off-rate (koff) of 0.00105 s⁻¹ and a kon of 148000 M⁻¹ s⁻¹.

B2: A4-088 (VHH)
VHH: VQLQESGGGLVQTGGSLRLSCAASGSRFSLNTMGWYRQAPGKQRELVAAVTRGGNTNYGDFVKGRFTISRDNAKNTVYLQMNSLRPEDTAVYYCHVDELRESSWTTSNLWGQGTQVTVSS
On to B2, for which the Kd in assay [4] was determined as 201 nM; in assay [5], 2420 nM; in assay [6], 234 nM; in assay [7], 538 nM. Besides, the koff came to 0.00146 s⁻¹ in assay [4], 0.00993 s⁻¹ in assay [5], 0.00177 s⁻¹ in assay [6] and 0.00454 s⁻¹ in assay [7]. Further, the kon in assay [4] turned out to be 7260 M⁻¹ s⁻¹; in assay [5], 4100 M⁻¹ s⁻¹; in assay [6] it was 7570 M⁻¹ s⁻¹; in assay [7], 8440 M⁻¹ s⁻¹.

B3: A4-103 (VHH)
VHH: B2 VHH with T13P, R27I, T32A, A49T, V50I, N55S, G59A, F61S, L99V, S103I
For the molecule B3, in assay [1], binding was put at a Kd of 81.2 nM, the koff turned out to be 0.00107 s⁻¹ and the kon amounted to 13200 M⁻¹ s⁻¹. Further, in assay [2], the affinity, expressed as Kd, was 35.1 nM; the koff is 0.00182 s⁻¹; the kon is 51900 M⁻¹ s⁻¹. In assay [3], this molecule came in with a Kd of 26.9 nM, a koff of 0.00137 s⁻¹ and a kon of 51000 M⁻¹ s⁻¹.

B4: A4-092 (VHH)
VHH: VQLQESGGGLVQTGGSLRLSCLASGSIFSINTMGWYRQRAGKQRELVATVTRAGSTNYADSVKGRFTISRDNAKNTVYLQMNSLRPEDTAVYYCHVDEIRESSWTTSNLWGQGTQVTVSS
Regarding B4, the Kd in assay [4] turned out to be 0.194 nM; in assay [5], 1.09 nM; in assay [6] it was 1.06 nM; in assay [7], 0.106 nM. For the same molecule, the koff in assay [4] was determined as 1e-05 s⁻¹; in assay [5], 6e-05 s⁻¹; in assay [6] it was 9e-05 s⁻¹; in assay [7] it was 2e-05 s⁻¹. Moreover, the kon was determined as 51600 M⁻¹ s⁻¹ in assay [4], 55100 M⁻¹ s⁻¹ in assay [5], 84900 M⁻¹ s⁻¹ in assay [6] and 188000 M⁻¹ s⁻¹ in assay [7].

B5: A4-093 (VHH)
VHH: B4 VHH with L22A, S29I, A53G, S83T, I99L, E101Q
As for B5, the Kd was 8.21 nM in assay [4], 46 nM in assay [5], 15.5 nM in assay [6] and 11.8 nM in assay [7]. Also, the koff was determined as 0.00114 s⁻¹ in assay [4], 0.00103 s⁻¹ in assay [5], 0.0011 s⁻¹ in assay [6] and 0.00196 s⁻¹ in assay [7]. In addition, the kon in assay [4] amounted to 139000 M⁻¹ s⁻¹; in assay [5] it was 22400 M⁻¹ s⁻¹; in assay [6], 70800 M⁻¹ s⁻¹; in assay [7], 166000 M⁻¹ s⁻¹.

B6: A4-104 (VHH)
VHH: VQLQESGGGLVQPGGSLRLSCAASGSIFSLNSMGWYRQAPGKQRELVATITSGGSTNYAGSVKGRFTISRDNAKNTVYLQMNNLQPEDTAVYYCHVDEVRESSWTTSNLWGQGTQVTVSS
In assay [1], B6 came in with a Kd of 451 nM, a koff of 0.00093 s⁻¹ and a kon of 2060 M⁻¹ s⁻¹. Also, in assay [2], binding was characterised by a dissociation constant (Kd) of 10.5 nM, the koff turned out to be 3e-05 s⁻¹ and the kon came out at 2860 M⁻¹ s⁻¹. In assay [3], this molecule yielded a Kd of 44 nM, a koff of 0.00037 s⁻¹ and a kon of 8420 M⁻¹ s⁻¹.

B7: A4-107 (VHH)
VHH: B1 VHH with A11V, L22I, M33V, P41A, W43Q, V50L, G60D, L96V, T103S
In the case of B7, the Kd was 1680 nM in assay [1], 848 nM in assay [2] and 703 nM in assay [3]. The figures for the koff in assay [1], in assay [2] and in assay [3] were 0.00356 s⁻¹, 0.00101 s⁻¹ and 0.00353 s⁻¹, respectively. Besides, the kon in assay [1] was 2120 M⁻¹ s⁻¹; in assay [2], 1190 M⁻¹ s⁻¹; in assay [3], 5020 M⁻¹ s⁻¹.

B8: A4-110 (VHH)
VHH: VQLQESGGGLVQPGGSLRLSCFASGTNFSINVVGWYRQAPGKQRELVATITRGGSTNYAESVKGRFTISRDNAKNTVYLQMNNLRPEDTAVYYCHLDEVRDSSWTTSNLWGQGTQVTVSS
With B8, in assay [1], the Kd worked out at 347 nM, the koff was found to be 0.0014 s⁻¹ and the kon is 4040 M⁻¹ s⁻¹. In assay [2], this molecule yielded a Kd of 860 nM, a koff of 0.00596 s⁻¹ and a kon of 6930 M⁻¹ s⁻¹. Further, in assay [3], binding was characterised by a dissociation constant (Kd) of 37.8 nM, the koff came to 0.00035 s⁻¹ and the kon turned out to be 9270 M⁻¹ s⁻¹.

B9: A4-089 (VHH)
VHH: B4 VHH with T13P, L22A, I27N, R39A, A40P, V50F, S55N, A73G, I99V, E101D
For the molecule B9, the Kd is 163 nM in assay [4], 4.28 nM in assay [5], 2.29 nM in assay [6] and 4.48 nM in assay [7]. Further, the koff was 0.00099 s⁻¹ in assay [4], 0.0008 s⁻¹ in assay [5], 0.00041 s⁻¹ in assay [6] and 0.00054 s⁻¹ in assay [7]. For the same molecule, the kon in assay [4] came out at 6080 M⁻¹ s⁻¹; in assay [5], 187000 M⁻¹ s⁻¹; in assay [6] it was 179000 M⁻¹ s⁻¹; in assay [7] it was 121000 M⁻¹ s⁻¹.

B10: A4-101 (VHH)
VHH: VQLQESGGGLVQPGGSLRLSCAASGSRFSINIMGWYRQAPGKQRELVASVTRGGTTNYADSVKGRFTISRDNPKNTIYLQMNSLRPEDTAVYYCHVDEIRESTWTTSNLWGQGTQVTVSS
As for B10, the dissociation constant Kd in assay [1] worked out at 13.4 nM; in assay [2] it was 162 nM; in assay [3] it was 70.8 nM. Besides, the koff in assay [1] was 9e-05 s⁻¹; in assay [2] it was 0.00129 s⁻¹; in assay [3], 0.00034 s⁻¹. Moreover, the kon in assay [1] stood at 6700 M⁻¹ s⁻¹; in assay [2] it was 7970 M⁻¹ s⁻¹; in assay [3], 4800 M⁻¹ s⁻¹.

B11: A4-106 (VHH)
VHH: B6 VHH with A22I, S32A, G60D, V77A, S103I
With B11, in assay [1], the dissociation constant (Kd) stood at 1.65 nM, the koff is 0.00011 s⁻¹ and the kon is 66600 M⁻¹ s⁻¹. In assay [2], the Kd amounted to 16 nM, the koff was 0.00191 s⁻¹ and the kon turned out to be 120000 M⁻¹ s⁻¹. In assay [3], this molecule displayed a Kd of 2.12 nM, a koff of 0.00042 s⁻¹ and a kon of 198000 M⁻¹ s⁻¹.

B12: A4-090 (VHH)
VHH: VQLQESGGGLVQPGGSLRLSCVASGSRFIINTMGWYRQAPGKQRELVATFTRGGNTNYAESVKGRFTISRDNGKSTVYLQMNSLRPEDTAVYYCHVDEVRESTWTTSNLWGQGTQVTVSS
With B12, the Kd in assay [4] is 121 nM; in assay [5] it was 6.83 nM; in assay [6], 24.9 nM; in assay [7] it was 14.5 nM. Moreover, the koff in assay [4] came out at 0.00186 s⁻¹; in assay [5], 0.00136 s⁻¹; in assay [6], 0.0015 s⁻¹; in assay [7], 0.00109 s⁻¹. In addition, the kon was found to be 15300 M⁻¹ s⁻¹ in assay [4], 199000 M⁻¹ s⁻¹ in assay [5], 60400 M⁻¹ s⁻¹ in assay [6] and 75300 M⁻¹ s⁻¹ in assay [7].

B13: A4-099 (VHH)
VHH: B2 VHH with R27S, L30I, Q43W, N55D, G59A, D60E, F61S, A73G, V96I, L99I
As for B13, the Kd was 4.19 nM in assay [4], 1.06 nM in assay [5], 0.203 nM in assay [6] and 2.57 nM in assay [7]. In addition, the koff in assay [4] worked out at 0.00041 s⁻¹; in assay [5], 0.00021 s⁻¹; in assay [6], 3e-05 s⁻¹; in assay [7], 0.0005 s⁻¹. The kon in assay [4] amounted to 98000 M⁻¹ s⁻¹; in assay [5], 197000 M⁻¹ s⁻¹; in assay [6] it was 148000 M⁻¹ s⁻¹; in assay [7] it was 194000 M⁻¹ s⁻¹.

B14: A4-109 (VHH)
VHH: B2 VHH with T13A, S26T, R27I, T32V, A49S, G59A, F61S, N75T, E101D, S103T
Consider B14, for which, in assay [1], the Kd came to 42.4 nM, the koff is 0.00071 s⁻¹ and the kon was 16800 M⁻¹ s⁻¹. Besides, in assay [2], binding was put at a Kd of 2.27 nM, the koff worked out at 0.00035 s⁻¹ and the kon came out at 154000 M⁻¹ s⁻¹. Further, in assay [3], the dissociation constant (Kd) was 3.74 nM, the koff worked out at 0.00022 s⁻¹ and the kon worked out at 58800 M⁻¹ s⁻¹.

B15: A4-102 (VHH)
VHH: B2 VHH with T13P, R27H, S29T, L30I, T32S, M33V, A49P, N55T, G59A, E101D
As to B15, the results for the Kd in assay [1], in assay [2] and in assay [3] were 30.8 nM, 7.86 nM and 40.4 nM, respectively. For the same molecule, the figures for the koff in assay [1], in assay [2] and in assay [3] were 0.00465 s⁻¹, 0.0006 s⁻¹ and 0.007 s⁻¹, respectively. For the same molecule, the kon worked out at 151000 M⁻¹ s⁻¹ in assay [1], 76300 M⁻¹ s⁻¹ in assay [2] and 173000 M⁻¹ s⁻¹ in assay [3].
